Data set [1] in a line: Reaction of two AGT variants in one sample with CPTG and BG-Bt. The note with it: versus His-tagged AGTM. In kind it is biochemical. As to the method:
FIG. 2: Western blot of the reaction of wild type hAGT (GST-hAGT fusion protein) and AGTM with the two substrates N^9-cyclopentyl-O^6-bromophenyl-guanine (CPTG) and biotinylated O^6-benzylguanine (BG-Bt, substance 3a of Juillerat et al. 2003) as described in Example 7. BG-Bt is present in all samples at 5 μM. Detection with neutravidin-peroxidase conjugate and luminescent peroxidase substrate detecting any AGT reacted with BG-Bt. Even under simultaneous incubation with identical concentrations of CPTG and BG-Bt only about 5% of GST-hAGT reacts with substrate BG-Bt.
Within the experiment two tags with different size for the two AGT proteins are used: The His-tagged AGTM (˜20 kDa) and GST-hAGT (cloned and prepared as described in Example 1, but starting with the wild type hAGT gene, ˜48 kDa) are diluted to 0.2 μM and 1.2 μM final concentration, respectively, in reaction buffer containing 50 mM HEPES, 1 mM DTT, 200 mg/mL BSA (pH 7.3). The sample is incubated with a mixture of substrates N^9-cyclopentyl-O^6-bromophenyl-guanine (CPTG; 0, 5 and 10 μM final concentrations) and biotinylated O^6-benzylguanine (BG-Bt, 5 μM final concentration) for 30 minutes. The reaction is quenched by addition of SDS-Laemmli buffer and subjected to Western blotting analysis (Example 1). As the two AGT variants have different masses, the two proteins can be separated on an acrylamide gel and analyzed independently. […] At the same concentration (both substrates at 5 μM final concentration), 95% of GST-hAGT reacts with CPTG, versus only 5% of His-tagged AGTM.

A short description of data set [2]: Competition of N^9-substituted and N^9-unsubstituted O^6-benzylguanine substrates. In kind it is biochemical. The procedure:
Such N^9-substituted O^6-alkylguanine substrates are the natural substrates of the wild type AGT. The ability of wild type AGT or mutant AGT to react with N^9-modified O^6-alkylguanine substrates is measured as the rate of its reaction with such substrates, e.g. with the low molecular weight N^9-cyclopentyl-O^6-benzylguanine in presence of biotinylated N^9-unsubstituted O^6-alkylguanine substrates in competition experiments. Subsequently, samples are subjected to Western blotting and detection with streptavidin derivates to obtain kinetic constants for these substrates. Alternatively, the reactivity towards such substrates is measured as the inhibition of the reaction of AGT with BG-Cy3. The reaction of AGT with BG-Cy3 is followed by an increase of Cy3 fluorescence intensity upon binding to AGT, after preincubation or in direct competition with the N^9-modified O^6-alkylguanine substrate.
Selected AGT mutants are subcloned into pGEX2T, expressed, purified and characterized as described in Example 1. Discrimination between N^9 substituted and N^9 unsubstituted O^6-benzylguanine substrates is evaluated by competition experiments for purified mutated GST-AGT in vitro with N^9-substituted and N′-unsubstituted O^6-benzylguanine. Aliquots of 0.2 μM GST-AGT are incubated with varying concentrations of N^9 substituted substrate (0, 0.5, up to 100 µM) and 0.5 µM biotinylated O^6-benzylguanine (BG-Bt, substance 3a of Juillerat et al., Chem Biol 10:313-317, 2003) in 50 mM HEPES pH 7.3 and 1 mM DTT at room temperature. After 45 min reactions are quenched by the addition of SDS-Laemmli buffer and heat denaturation. Samples are subjected to SDS-PAGE and Western blotting analysis (neutravidin-peroxidase conjugate (PIERCE), Renaissance reagent plus (NEN)). The intensity of the corresponding bands is quantified by a Kodak Image Station 440.

Data set [3] can be described thus: Activity assay with biotinylated O^6-benzylguanine (BG-Bt), Western blotting. In kind it is biochemical. The note with it: statement in words. As to the method: Activity towards O^6-benzylguanine substrates is measured as described by Juillerat et al., Chem Biol 10:313-317, 2003.
Activity assay: Purified mutated GST-AGT is incubated in vitro with a biotinylated O^6-benzylguanine (BG-Bt, substance 3a of Juillerat et al., Chem Biol 10:313-317, 2003). In a total reaction volume of 80 […]I, 0.2 µM GST-AGT are incubated with 1 µM substrate in 50 mM HEPES pH 7.2 and 1 mM DTT at room temperature. At several points of time an aliquot is quenched with 1 mM O^6-benzylguanine (Sigma) in SDS-Laemmli buffer and subjected to Western blotting analysis (neutravidin-peroxidase conjugate (PIERCE), Renaissance reagent plus (NEN)). The intensity of the corresponding bands is quantified by a Kodak Image Station 440.
For orientation: In western blotting, separated proteins are transferred to a membrane and probed.

A short description of data set [4]: Expression yield of soluble GST-AGT fusion protein. Also noted: species or system E. coli. The settings on record: comparator not stated. The procedure: Expression yield is measured in E. coli or in any other of the standard production cells for genetically modified proteins, e.g. yeast, or preferably insect cells, CHO cells or HeLa cells. For quantifying expression yield, AGT fusion proteins may be chosen such that the fusion partner allows easy purification and quantification. For example, expression yield in E. coli is determined by measuring and comparing the yield of soluble and insoluble GST-wild type AGT fusion protein and GST-mutant AGT fusion protein from parallel E. coli expression cultures. Samples of the soluble fractions and insoluble fractions (i.e. the inclusion bodies) after cell lysis are subjected to SDS-PAGE, and the band staining intensities of the corresponding AGT fusion proteins are compared. Soluble protein is quantified after purification of the fusion protein from cell extracts by affinity chromatography (e.g. for GST-AGT fusion proteins by glutathione sepharose) by subjecting the purified fractions to a protein concentration assay (Bradford, Anal Biochem 72:248-54, 1976). The expression yield of similar proteins in the soluble fraction (difference in point mutations) can be used as a measure for protein stability in the unpurified as well as the purified state (Ohage et al., J Mol Biol 291:1119-1128, 1999; Wirtz et al., Protein Sci 8: 2245-50, 1999). Therefore, this is taken as a measure of folding stability and aggregation tendency.
Protein expression from this vector is carried out in E. coli strain BL21. An exponentially growing culture is induced with 0.5 mM IPTG, and the expression is carried out for 3.5 h at 24° C.
Purification: The harvested cells are resuspended in a buffer containing 50 mM phosphate, 0.5 M NaCl, 1 mM DTT, supplemented with 1 mM PMSF and 2 μg/ml aprotinin, and disrupted by lysozyme and sonification. The cell debris are separated by centrifugation at 40000×g. The extract is applied to pre-equilibrated glutathione sepharose (Amersham) which is then washed with 20 bed volumes (50 mM phosphate, 0.5 M NaCl, 1 mM DTT). The mutated GST-AGT fusion protein is eluted with 10 mM reduced glutathione in 50 mM Tris·HCl pH 7.9. The purified protein is dialyzed against 50 mM HEPES pH 7.2; 1 mM DTT; 30% glycerol and then stored at −80° C.
Determination of protein yield: Purity and relative amounts of the GST-AGT fusion proteins are compared by running samples on SDS-PAGE. UV spectra of the pure fractions are recorded using a Perkin Elmer Lambda 10. For protein samples containing no significant amount of DNA, the extinction at 280 nm as a measure of protein content is compared to that of wild type hAGT or PGEG-hAGT that were purified under the same conditions.

Data set [5] relates to oligonucleotide SEQ ID NO:2 (modified in position 14). The experiment in a line: Reactivity against DNA-based substrates (BG-Cy3 assay with BG-modified oligonucleotide). It is filed as biochemical. The note with it: oligonucleotide SEQ ID NO:2 with O^6-benzyl at position 14; compared to PGEG-hAGT. As to the method: The ability of wild type AGT or mutant AGT to react with alkylated DNA substrates is measured as the reaction of its inactivation by a synthetic oligonucleotide containing O^6-benzylguanine (SEQ ID NO:2, modified in position 14). Subsequently, the reactions are quenched by incubation with biotinylated O^6-alkylguanine. Samples are subjected to Western blotting and detection with streptavidin derivates to obtain kinetic constants for these substrates. Alternatively, the ability of wild type or mutant AGT to react with alkylated DNA substrates is measured via its labeling efficiency in competition with a fluorescent substrate of AGT. The reaction kinetics of AGT with BG-Cy3 (O^6-benzylguanine coupled to Cy3) is followed by fluorescence intensity measurements at various concentrations of a competing synthetic oligonucleotide containing O^6-benzylguanine (SEQ ID NO:2, modified in position 14).
Reactivity against DNA-based substrates measured with a BG-Cy3 assay: BG-Cy3 is prepared by reacting the previously described O^6-(4-aminomethyl-benzyl)guanine (Keppler et al., NatureBiotechnol. 21:86-89, 2003) with the commercially available N-hydroxysuccinimide ester of Cy3, (Cy3-NHS, Amersham). The coupling reaction is performed at ambient temperature in N,N-dimethylformamide in the presence of 1 eq. of triethylamine. The BG-Cy3 conjugate is purified by reversed-phase HPLC on a C18-column by using linear gradients from 0.1% trifluoroacetic acid to acetonitrile. After solvent evaporation BG-Cy3 is dissolved in dimethyl sulfoxide and stored at −20° C. For measuring the reactivity with DNA-based substrates, a reaction mixture containing different concentrations (0 to 5 µM) of oligonucleotide SEQ ID NO:2 (modified in position 14), GST-AGT fusion protein at 0.2 µM and BG-Cy3 at […] in reaction buffer (50 mM HEPES, pH 7.2, 1 mM DTT, 200 mg/ml BSA) is incubated in microtiterplates. Fluorescence of the Cy3 derivative (excitation 519 nm, emission at 572 nm) is measured on a Spectramax Gemini plate reader (Molecular Devices).

“Also recorded” adds a separate entry of the source.

For `Nc1nc(OCc2cc(Br)cs2)c2ncn(C3CCCC3)c2n1` [CPTG, reference compound], the “specificity of CPTG towards GST-hAGT” value in data set [1] is on record as “high specificity”.

B1: Gly131Lys, Gly132Thr, Met134Leu, Arg135Ser, Asn157Gly, Ser159Glu: hAGT mutant with the listed mutations, selected by phage display (protein, UniProt P16455 1-207, looked up, variant G131K G132T M134L R135S N157G S159E)
Methylated-DNA--protein-cystei …: MDKDCEMKRTTLDSPLGKLELSGCEQGLHEIKLLGKGTSAADAVEVPAPAAVLGGPEPLMQCTAWLNAYFHQPEAIEEFPVPALHHPVFQQESFTRQVLWKLLKVVKFGEVISYQQLAALAGNPKAARAVKTALSGNPVPILIPCHRVVCSSGAVGGYEGGLAVKEWLLAHEGHRLGKPGLGGSSGLAGAWLKGAGATSGSPPAGRN
As to B1, the “reduced reactivity towards O^6-alkyl-N^9-deoxyribosylguanine or N^9-cyclopentyl-O^6-benzylguanine” value in data set [2] (comparator not stated) is “substantially reduced reactivity”. The “reduction of reactivity towards O^6-alkyl-N^9-deoxyribosylguanine or N^9-cyclopentyl-O^6-benzylguanine” value in data set [2] (compared to PGEG-hAGT) is “at least 10 fold”. For the same molecule, the “activity towards O^6-benzylguanine substrates” value in data set [3] was “at least twofold further increased activity; also recorded: increased reactivity”. Further, the “expression yield in E. coli” value in data set [4] was “increased expression yield”. In data set [5], the “reduction of reactivity with oligonucleotides” value is “at least 1000 fold”.

B2: Gln115Ser, Gln116His, Cys150Asn, Ser151Ile, Ser152Asn, Asn157Gly, Ser159Glu: hAGT mutant with the listed mutations, selected by phage display (protein, UniProt P16455 1-207, looked up, variant Q115S Q116H C150N S151I S152N N157G S159E)
Methylated-DNA--protein-cystei …: MDKDCEMKRTTLDSPLGKLELSGCEQGLHEIKLLGKGTSAADAVEVPAPAAVLGGPEPLMQCTAWLNAYFHQPEAIEEFPVPALHHPVFQQESFTRQVLWKLLKVVKFGEVISYSHLAALAGNPKAARAVGGAMRGNPVPILIPCHRVVNINGAVGGYEGGLAVKEWLLAHEGHRLGKPGLGGSSGLAGAWLKGAGATSGSPPAGRN
Take B2: in data set [3], the “activity towards O^6-benzylguanine substrates” value is on record as “retains activity”. In addition, the “expression yield in E. coli” value in data set [4] is “substantially increased expression yield”.

These data come from patent US7888090B2, “Mutants of O6-alkylguanine-DNA alkyltransferase” (Ecole Polytechnique Federale de Lausanne, priority 2004, dated 2011).
